Article PMC5989136

Molecular target: H4 conjugated to SUMO (UniProt P62799)
Experiment: refolding of the histone complex, analysed by SDS-PAGE

H3K23ac (H3 with acetylation at K23) (from UniProt P84233 1-136) (natural protein)
stoichiometry N: 1 H3K23ac:H4
